Laboratory results published in patent US20190233495A1 (Sanofi, published 2019).
Non-standard residues stand in square brackets, D forms with d. 1Nal = N[C@@H](Cc1cccc2ccccc12)C(=O)O; Nle = CCCC[C@H](N)C(=O)O; Aib = CC(C)(N)C(=O)O

T1: RXFP1 receptor (UniProt Q9HBX9 1-757, limits assumed)
T1 sequence (looked up): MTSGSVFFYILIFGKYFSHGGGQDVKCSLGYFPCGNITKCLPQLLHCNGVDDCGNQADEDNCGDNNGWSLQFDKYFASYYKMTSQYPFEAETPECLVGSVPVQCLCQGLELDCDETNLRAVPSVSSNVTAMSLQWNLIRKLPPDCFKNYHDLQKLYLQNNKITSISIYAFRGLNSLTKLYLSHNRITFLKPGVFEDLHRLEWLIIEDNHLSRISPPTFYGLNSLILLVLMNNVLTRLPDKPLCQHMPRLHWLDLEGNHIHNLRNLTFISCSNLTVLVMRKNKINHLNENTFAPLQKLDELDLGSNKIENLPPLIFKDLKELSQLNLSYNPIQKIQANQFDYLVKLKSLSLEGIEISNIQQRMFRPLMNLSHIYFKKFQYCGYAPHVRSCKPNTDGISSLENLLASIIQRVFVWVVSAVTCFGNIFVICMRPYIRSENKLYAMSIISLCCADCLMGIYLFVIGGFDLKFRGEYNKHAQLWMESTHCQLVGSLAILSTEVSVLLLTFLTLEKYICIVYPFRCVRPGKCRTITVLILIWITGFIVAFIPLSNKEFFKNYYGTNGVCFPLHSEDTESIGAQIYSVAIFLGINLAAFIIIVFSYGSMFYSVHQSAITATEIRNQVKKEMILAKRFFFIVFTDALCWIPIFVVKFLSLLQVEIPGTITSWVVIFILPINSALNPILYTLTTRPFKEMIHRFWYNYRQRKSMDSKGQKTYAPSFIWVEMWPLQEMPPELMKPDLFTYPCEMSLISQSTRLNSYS

B1: SEQ ID NO: 12 (peptide)
peptide: H-[Aib]EGREKVRAQI[Aib][Aib]EGMSKWSKRKK-NH2
SMILES: CC[C@H](C)[C@H](NC(=O)[C@H](CCC(N)=O)NC(=O)[C@H](C)NC(=O)[C@H](CCCNC(=N)N)NC(=O)[C@@H](NC(=O)[C@H](CCCCN)NC(=O)[C@H](CCC(=O)O)NC(=O)[C@H](CCCNC(=N)N)NC(=O)CNC(=O)[C@H](CCC(=O)O)NC(=O)C(C)(C)N)C(C)C)C(=O)NC(C)(C)C(=O)NC(C)(C)C(=O)N[C@@H](CCC(=O)O)C(=O)NCC(=O)N[C@@H](CCSC)C(=O)N[C@@H](CO)C(=O)N[C@@H](CCCCN)C(=O)N[C@@H](Cc1c[nH]c2ccccc12)C(=O)N[C@@H](CO)C(=O)N[C@@H](CCCCN)C(=O)N[C@@H](CCCNC(=N)N)C(=O)N[C@@H](CCCCN)C(=O)N[C@@H](CCCCN)C(N)=O
B2: SEQ ID NO: 13 (peptide)
peptide: Ac-LEGREKVRAQI[Aib][Aib]EG[Nle]STWSKRKK-NH2
SMILES: CCCC[C@H](NC(=O)CNC(=O)[C@H](CCC(=O)O)NC(=O)C(C)(C)NC(=O)C(C)(C)NC(=O)[C@@H](NC(=O)[C@H](CCC(N)=O)NC(=O)[C@H](C)NC(=O)[C@H](CCCNC(=N)N)NC(=O)[C@@H](NC(=O)[C@H](CCCCN)NC(=O)[C@H](CCC(=O)O)NC(=O)[C@H](CCCNC(=N)N)NC(=O)CNC(=O)[C@H](CCC(=O)O)NC(=O)[C@H](CC(C)C)NC(C)=O)C(C)C)[C@@H](C)CC)C(=O)N[C@@H](CO)C(=O)N[C@H](C(=O)N[C@@H](Cc1c[nH]c2ccccc12)C(=O)N[C@@H](CO)C(=O)N[C@@H](CCCCN)C(=O)N[C@@H](CCCNC(=N)N)C(=O)N[C@@H](CCCCN)C(=O)N[C@@H](CCCCN)C(N)=O)[C@@H](C)O
B3: SEQ ID NO: 15 (peptide)
peptide: Ac-LEGREKVRAQI[Aib][Aib]EG[Nle]ST[1Nal]SKRKK-NH2
SMILES: CCCC[C@H](NC(=O)CNC(=O)[C@H](CCC(=O)O)NC(=O)C(C)(C)NC(=O)C(C)(C)NC(=O)[C@@H](NC(=O)[C@H](CCC(N)=O)NC(=O)[C@H](C)NC(=O)[C@H](CCCNC(=N)N)NC(=O)[C@@H](NC(=O)[C@H](CCCCN)NC(=O)[C@H](CCC(=O)O)NC(=O)[C@H](CCCNC(=N)N)NC(=O)CNC(=O)[C@H](CCC(=O)O)NC(=O)[C@H](CC(C)C)NC(C)=O)C(C)C)[C@@H](C)CC)C(=O)N[C@@H](CO)C(=O)N[C@H](C(=O)N[C@@H](Cc1cccc2ccccc12)C(=O)N[C@@H](CO)C(=O)N[C@@H](CCCCN)C(=O)N[C@@H](CCCNC(=N)N)C(=O)N[C@@H](CCCCN)C(=O)N[C@@H](CCCCN)C(N)=O)[C@@H](C)O
B4: SEQ ID NO: 14 (peptide)
peptide: Ac-LEGREKVRAQI[Aib][Aib]EG[Nle]SK[1Nal]SKRKK-NH2
SMILES: CCCC[C@H](NC(=O)CNC(=O)[C@H](CCC(=O)O)NC(=O)C(C)(C)NC(=O)C(C)(C)NC(=O)[C@@H](NC(=O)[C@H](CCC(N)=O)NC(=O)[C@H](C)NC(=O)[C@H](CCCNC(=N)N)NC(=O)[C@@H](NC(=O)[C@H](CCCCN)NC(=O)[C@H](CCC(=O)O)NC(=O)[C@H](CCCNC(=N)N)NC(=O)CNC(=O)[C@H](CCC(=O)O)NC(=O)[C@H](CC(C)C)NC(C)=O)C(C)C)[C@@H](C)CC)C(=O)N[C@@H](CO)C(=O)N[C@@H](CCCCN)C(=O)N[C@@H](Cc1cccc2ccccc12)C(=O)N[C@@H](CO)C(=O)N[C@@H](CCCCN)C(=O)N[C@@H](CCCNC(=N)N)C(=O)N[C@@H](CCCCN)C(=O)N[C@@H](CCCCN)C(N)=O

target: T1, RXFP1 receptor; assay: cell-based or functional assay

Row | Binder | cAMP assay in OVCAR 5 cells EC50 | cAMP assay in OVCAR 5 cells Emax
1 | B1 | 0.0282 µM | 99%
2 | B2 | 0.0192 µM | 97%
3 | B3 | 0.0244 µM | 104%
4 | B4 | 0.0328 µM | 106%
